Results taken from patent US20250206828A1, “ANTI-ADENOSINE RECEPTOR (A2aR) ANTIBODIES AND THE USE THEREOF” (Adept Therapeutics Inc., priority 2022, published 2025).
Substitutions are numbered along the chain they refer to.

B1: Hu1B5-H6/Hu1B5-L1: humanized anti-A2aR IgG1 FES antibody; HCVR SEQ ID NO:57, LCVR SEQ ID NO:71 (antibody, V domains shown)
VH: EVQLVQSGAEVKKPGESLRISCKTSGFTFTRFWMNWVRQMPGKGLEWIGRIDPYDSETQYNHKFWDHATLSVDKSSSTVYLQWSSLKASDTAMYYCGRSLYGKGDYWGQGTTVTVSS
VL: DVVMTQSPLSLPVTLGQPASISCRSSQSIVHSNGNTYLEWFQQRPGQSPRRLIYKVSNRFSGVPDRFSGSGSGTDFTLKISRVEAEDVGVYYCFQGSHVPLTFGGGTKVEIK
modifications: IgG1 FES constant regions
B2: Hu1B5-H2/Hu1B5-L1: humanized anti-A2aR IgG1 FES antibody; HCVR SEQ ID NO:52, LCVR SEQ ID NO:71 (antibody, V domains shown)
VH: EVQLVQSGAEVKKPGASVKVSCKTSGFTFTRFWMNWVRQAPGQGLEWMGRIDPYDSETQYNHKFWDRVTMTVDTSTSTVYMELSSLRSEDTAVYYCGRSLYGKGDYWGQGTTVTVSS
VL: B1 VL
modifications: IgG1 FES constant regions
B3: Hu1B5-H2.1/Hu1B5-L1: humanized anti-A2aR IgG1 FES antibody; HCVR SEQ ID NO:53, LCVR SEQ ID NO:71 (antibody, V domains shown)
VH: B2 VH with M48I
VL: B1 VL
B4: Hu1B5-H1/Hu1B5-L2: humanized anti-A2aR IgG1 FES antibody; HCVR SEQ ID NO:51, LCVR SEQ ID NO:72 (antibody, V domains shown)
VH: B2 VH with E1Q, T24A, V72R
VL: B1 VL with F41Y
B5: Hu3F8-H5/Hu3F8-L2: humanized anti-A2aR IgG1 FES antibody; HCVR SEQ ID NO:68, LCVR SEQ ID NO:85 (antibody, V domains shown)
VH: EVQLVQSGAEVKKPGASVKVSCKASGFTFTRYWMNWVRQAPGQGLEWIGRIDPSDSETHYNAKFWGRATLTVDKSTSTVYMELSSLRSEDTAVYYCLRSLYGKGDYWGQGTTVTVSS
VL: B1 VL with F41Y, F94Y
B6: Hu3F8-H4/Hu3F8-L1: humanized anti-A2aR IgG1 FES antibody; HCVR SEQ ID NO:67, LCVR SEQ ID NO:84 (antibody, V domains shown)
VH: B5 VH with A62H
VL: B1 VL with F94Y
B7: Hu3F6-H2/Hu3F6-L2: humanized anti-A2aR IgG1 FES antibody; HCVR SEQ ID NO:59, LCVR SEQ ID NO:77 (antibody, V domains shown)
VH: B2 VH with T28A, R31S, F32Y, Y54S, T58A, Q59H, N61H, D66G, G97L, Q109H
VL: B1 VL with I29L, S32R, F41Y, F94Y
modifications: IgG1 FES constant regions
B8: Hu3F6-H4/Hu3F6-L1: humanized anti-A2aR IgG1 FES antibody; HCVR SEQ ID NO:61, LCVR SEQ ID NO:76 (antibody, V domains shown)
VH: B5 VH with A24T, T28A, R31S, T58A, N61H, A62H, T76S, Q109H
VL: B1 VL with I29L, S32R, F94Y
B9: Hu3F8-H5/Hu3F8-L1: humanized anti-A2aR IgG1 FES antibody; HCVR SEQ ID NO:68, LCVR SEQ ID NO:84 (antibody, V domains shown)
VH: B5 VH
VL: B1 VL with F94Y
B10: Hu3F6-H3/Hu3F6-L1: humanized anti-A2aR IgG1 FES antibody; HCVR SEQ ID NO:60, LCVR SEQ ID NO:76 (antibody, V domains shown)
VH: B5 VH with A24T, T28A, R31S, T58A, N61H, A62H, K74T, T76S, Q109H
VL: B1 VL with I29L, S32R, F94Y
B11: Hu3F6-H5/Hu3F6-L2: humanized anti-A2aR IgG1 FES antibody; HCVR SEQ ID NO:62, LCVR SEQ ID NO:77 (antibody, V domains shown)
VH: B5 VH with A24T, T28A, R31S, T58A, N61A, A62H, T76S, Q109H
VL: B1 VL with I29L, S32R, F41Y, F94Y
B12: Hu3F8-H6/Hu3F8-L1: humanized anti-A2aR IgG1 FES antibody; HCVR SEQ ID NO:70, LCVR SEQ ID NO:84 (antibody, V domains shown)
VH: B1 VH with T24A, F32Y, Y54S, Q59H, D66G, G97L
VL: B1 VL with F94Y
B13: Hu3F8-H4/Hu3F8-L2: humanized anti-A2aR IgG1 FES antibody; HCVR SEQ ID NO:67, LCVR SEQ ID NO:85 (antibody, V domains shown)
VH: B5 VH with A62H
VL: B1 VL with F41Y, F94Y
B14: Hu3F8-H2/Hu3F8-L2: humanized anti-A2aR IgG1 FES antibody; HCVR SEQ ID NO:65, LCVR SEQ ID NO:85 (antibody, V domains shown)
VH: B5 VH with I48M, A62H, A68V, L70M, K74T
VL: B1 VL with F41Y, F94Y
B15: Hu3F6-H3/Hu3F6-L2: humanized anti-A2aR IgG1 FES antibody; HCVR SEQ ID NO:60, LCVR SEQ ID NO:77 (antibody, V domains shown)
VH: B5 VH with A24T, T28A, R31S, T58A, N61H, A62H, K74T, T76S, Q109H
VL: B1 VL with I29L, S32R, F41Y, F94Y
B16: Hu3F6-H5/Hu3F6-L1: humanized anti-A2aR IgG1 FES antibody; HCVR SEQ ID NO:62, LCVR SEQ ID NO:76 (antibody, V domains shown)
VH: B5 VH with A24T, T28A, R31S, T58A, N61A, A62H, T76S, Q109H
VL: B1 VL with I29L, S32R, F94Y
B17: Hu3F8-H3/Hu3F8-L2: humanized anti-A2aR IgG1 FES antibody; HCVR SEQ ID NO:66, LCVR SEQ ID NO:85 (antibody, V domains shown)
VH: B5 VH with A62H, K74T
VL: B1 VL with F41Y, F94Y
B18: Hu3F8-H3/Hu3F8-L1: humanized anti-A2aR IgG1 FES antibody; HCVR SEQ ID NO:66, LCVR SEQ ID NO:84 (antibody, V domains shown)
VH: B5 VH with A62H, K74T
VL: B1 VL with F94Y

Target: human A2aR (Homo sapiens, UniProt P29274)
Sequence (P29274 whole entry): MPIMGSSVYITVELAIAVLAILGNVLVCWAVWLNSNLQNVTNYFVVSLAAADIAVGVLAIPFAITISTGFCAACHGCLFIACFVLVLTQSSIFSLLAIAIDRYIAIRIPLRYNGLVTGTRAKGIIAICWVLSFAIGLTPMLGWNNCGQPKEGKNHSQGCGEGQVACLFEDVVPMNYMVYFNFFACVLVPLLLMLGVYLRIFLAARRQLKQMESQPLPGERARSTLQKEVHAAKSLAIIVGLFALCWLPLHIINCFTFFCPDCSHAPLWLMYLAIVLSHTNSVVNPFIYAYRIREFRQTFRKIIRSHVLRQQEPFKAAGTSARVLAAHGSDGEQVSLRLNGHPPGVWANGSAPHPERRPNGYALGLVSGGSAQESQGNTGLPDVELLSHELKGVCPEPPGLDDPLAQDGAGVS
Experiment: Binding of humanized anti-A2aR antibodies in transfected Expi293F cell supernatant to human A2aR on HEK293 cells (FACS, MFI)
Details: supernatant normalized to 1 μg/ml antibody; HEK293 cells stably overexpressing human A2aR; greater MFI = stronger binding; parental value average of triplicate
Protocol: Briefly, HEK293 cells that stably overexpress human A2aR (HEK-hA2aR OCL, BPS Bioscience, Cat. 79381) were collected from fresh culture. Cells were then resuspended in FACS buffer (1×DPBS/1% FBS) at 10^6/ml concentration. One hundred microliters (100 μl) of cells were aliquoted into each well of a 96 well plates. After centrifugation, cell pellets in each well were then resuspended with 100 μl normalized supernatant samples containing 1 μg/ml humanized anti-A2aR monoclonal antibody variants collected from transfected Expi293 cell culture. The supernatants were mixed with the cells and incubated on ice for 1 hours. After washing the mixtures of the supernatants containing expressed antibodies and the A2aR-expressing cells with FACS buffer, one hundred microliters (100 μl) of 1:400 diluted PE-conjugated anti-human Fc secondary antibody (Jackson Immuno Research, Cat. 109-116-098) was added to each well followed by an incubation for 30 minutes on ice. After washes with FACS buffer, stained cells were resuspended in 150 μl of 7-AAD (Biolegend, Cat. 420404) diluted 1:100 in 1×DPBS buffer and incubate for 5 minutes in the dark at room temperature before FACS analysis. The mean fluorescence intensity (MFI) was obtained using Guava 11HT or 5HT (Luminex). Data was analyzed using Flowjo software.
As shown in Tables 22-24, exemplary humanized anti-A2aR antibodies bind to A2aR expressed on a cell surface. A greater MFI value means stronger binding of the exemplary antibody to A2aR expressed on a cell surface.

binding to human A2aR on cell surface, mean fluorescence intensity (MFI)	Molecule
178	B1
165	B2
145	B3
62	B4

Same assay, conditions: supernatant with 1 μg/ml antibody; HEK293 overexpressing human A2aR; heavy chain (row) x light chain

MFI, binding to human A2aR on cell surface (3F8-12E9 derived)	MFI, binding to human A2aR on cell surface (3F6-9G5 derived)	Molecule
147	–	B5
110	–	B6
–	146	B7
–	21	B8
58	–	B9
–	12	B10
–	191	B11
158	–	B12
131	–	B13
38	–	B14
–	200	B15
–	25	B16
93	–	B17
64	–	B18
